Assays:
[1] = target: T1, DVU1419 response regulator (Desulfovibrio vulgaris Hildenborough) (UniProt Q72C65); assay: EMSA; conditions: EMSA: 10 mM Tris-HCl pH 7.5, 1 mM DTT, 50 mM KCl, 5 mM MgCl2, 25% glycerol, 1 ug/ml poly dI-dC, 50-100 fmol biotin-DNA, 25-30 C, 20 min
T1 sequence: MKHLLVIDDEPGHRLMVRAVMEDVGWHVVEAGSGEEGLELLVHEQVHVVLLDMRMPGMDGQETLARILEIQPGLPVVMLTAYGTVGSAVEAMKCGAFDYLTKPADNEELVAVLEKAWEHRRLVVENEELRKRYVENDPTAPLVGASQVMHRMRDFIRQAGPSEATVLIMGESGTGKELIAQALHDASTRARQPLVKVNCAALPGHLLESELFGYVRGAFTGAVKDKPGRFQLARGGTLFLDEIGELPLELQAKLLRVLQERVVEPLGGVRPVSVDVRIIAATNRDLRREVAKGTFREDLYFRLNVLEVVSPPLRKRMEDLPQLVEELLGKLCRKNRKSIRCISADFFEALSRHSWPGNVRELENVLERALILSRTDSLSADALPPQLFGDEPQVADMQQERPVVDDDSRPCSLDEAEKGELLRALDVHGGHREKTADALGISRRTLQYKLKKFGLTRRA

[2] = target: T2, DVU0679 response regulator (Desulfovibrio vulgaris Hildenborough, UniProt Q72E99 1-488); assay: EMSA; EMSA: 10 mM Tris-HCl pH 7.5, 1 mM DTT, 50 mM KCl, 5 mM MgCl2, 25% glycerol, 1 ug/ml poly dI-dC, 50-100 fmol biotin-DNA, 25-30 C, 20 min; conditions: protein: recombinant; tags: C-terminal V5-6xHis; chain copies: 2; label: 5'-biotin top strand; blunt
T2 sequence: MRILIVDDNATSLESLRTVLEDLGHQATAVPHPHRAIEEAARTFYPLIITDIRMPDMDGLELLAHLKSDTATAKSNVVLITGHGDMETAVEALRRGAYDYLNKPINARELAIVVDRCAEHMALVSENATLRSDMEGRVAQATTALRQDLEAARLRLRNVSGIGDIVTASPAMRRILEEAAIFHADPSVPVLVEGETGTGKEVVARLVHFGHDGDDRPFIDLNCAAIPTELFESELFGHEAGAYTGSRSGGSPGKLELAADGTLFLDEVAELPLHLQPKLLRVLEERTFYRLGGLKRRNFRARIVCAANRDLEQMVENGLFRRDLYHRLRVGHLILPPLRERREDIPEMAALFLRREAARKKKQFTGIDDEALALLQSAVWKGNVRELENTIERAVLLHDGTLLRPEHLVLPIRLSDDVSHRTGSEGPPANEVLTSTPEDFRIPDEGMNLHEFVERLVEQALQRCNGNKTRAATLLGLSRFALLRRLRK

[3] = target: T3, DVU2394 response regulator (Desulfovibrio vulgaris Hildenborough, UniProt Q729F7 1-463); assay: EMSA; 10 mM Tris-HCl pH 7.5, 1 mM DTT, 50 mM KCl, 5 mM MgCl2, 25% glycerol, 1 ug/ml poly dI-dC, 50-100 fmol biotinylated DNA, 25-30 C, 20 min; conditions: protein: recombinant; tags: C-terminal V5-6xHis; chain copies: 2; label: 5'-biotin top strand
T3 sequence: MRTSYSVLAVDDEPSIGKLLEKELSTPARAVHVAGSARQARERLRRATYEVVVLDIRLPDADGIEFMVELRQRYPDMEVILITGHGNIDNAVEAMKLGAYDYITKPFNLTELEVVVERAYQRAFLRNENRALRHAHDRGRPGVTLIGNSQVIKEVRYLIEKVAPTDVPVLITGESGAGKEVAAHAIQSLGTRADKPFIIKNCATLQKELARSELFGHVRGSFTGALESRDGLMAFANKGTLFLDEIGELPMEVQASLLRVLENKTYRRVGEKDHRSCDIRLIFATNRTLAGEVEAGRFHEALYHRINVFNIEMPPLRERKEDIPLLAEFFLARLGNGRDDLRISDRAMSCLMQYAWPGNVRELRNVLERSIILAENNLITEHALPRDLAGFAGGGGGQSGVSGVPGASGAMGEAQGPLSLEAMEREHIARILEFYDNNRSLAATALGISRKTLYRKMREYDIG

[4] = target: T4, DVU1419 response regulator (Desulfovibrio vulgaris Hildenborough, UniProt Q72C65 1-459); assay: EMSA; EMSA: 10 mM Tris-HCl pH 7.5, 1 mM DTT, 50 mM KCl, 5 mM MgCl2, 25% glycerol, 1 ug/ml poly dI-dC, 50-100 fmol biotin-DNA, 25-30 C, 20 min; conditions: protein: recombinant; tags: C-terminal V5-6xHis; chain copies: 2; label: 5'-biotin top strand; blunt
T4 sequence: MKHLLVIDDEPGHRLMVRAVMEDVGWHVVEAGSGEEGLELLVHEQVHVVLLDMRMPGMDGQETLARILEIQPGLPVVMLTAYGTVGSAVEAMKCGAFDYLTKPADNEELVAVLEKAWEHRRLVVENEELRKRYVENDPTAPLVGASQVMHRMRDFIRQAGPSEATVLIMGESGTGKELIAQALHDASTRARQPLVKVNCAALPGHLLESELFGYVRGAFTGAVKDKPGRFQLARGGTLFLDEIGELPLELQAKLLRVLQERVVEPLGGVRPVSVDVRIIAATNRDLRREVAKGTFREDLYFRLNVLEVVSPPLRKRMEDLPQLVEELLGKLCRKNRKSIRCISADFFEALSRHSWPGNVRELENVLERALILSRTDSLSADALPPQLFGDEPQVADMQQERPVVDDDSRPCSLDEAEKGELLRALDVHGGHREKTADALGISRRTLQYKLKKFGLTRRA

[5] = target: T5, DVU0118 response regulator (Desulfovibrio vulgaris Hildenborough, UniProt Q72FU5 1-454); assay: as above; conditions: protein: recombinant; tags: C-terminal V5-6xHis; chain copies: 2; label: 5'-biotin top strand; blunt
T5 sequence: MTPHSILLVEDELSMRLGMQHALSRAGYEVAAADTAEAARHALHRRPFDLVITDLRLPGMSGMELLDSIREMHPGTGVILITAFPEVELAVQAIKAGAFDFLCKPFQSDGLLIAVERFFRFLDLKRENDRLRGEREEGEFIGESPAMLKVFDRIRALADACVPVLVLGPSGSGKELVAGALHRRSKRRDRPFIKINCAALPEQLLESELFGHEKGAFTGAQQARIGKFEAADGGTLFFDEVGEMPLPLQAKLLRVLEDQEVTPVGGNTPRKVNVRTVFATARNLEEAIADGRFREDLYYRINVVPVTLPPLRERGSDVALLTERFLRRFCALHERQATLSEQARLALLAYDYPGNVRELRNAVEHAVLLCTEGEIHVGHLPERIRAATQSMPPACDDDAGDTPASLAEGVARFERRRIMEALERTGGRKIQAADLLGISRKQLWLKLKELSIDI

[6] = target: T5, DVU0118 response regulator; assay: EMSA; 10 mM Tris-HCl pH 7.5, 1 mM DTT, 50 mM KCl, 5 mM MgCl2, 25% glycerol, 1 ug/ml poly dI-dC, 50-100 fmol biotinylated DNA, 25-30 C, 20 min; conditions: protein: recombinant; tags: C-terminal V5-6xHis; chain copies: 2; label: 5'-biotin top strand
[7] = target: T6, DVU0946 response regulator (Desulfovibrio vulgaris Hildenborough, UniProt Q72DI3 1-476); assay: EMSA; EMSA: 10 mM Tris-HCl pH 7.5, 1 mM DTT, 50 mM KCl, 5 mM MgCl2, 25% glycerol, 1 ug/ml poly dI-dC, 50-100 fmol biotin-DNA, 25-30 C, 20 min; conditions: protein: recombinant; tags: C-terminal V5-6xHis; chain copies: 2; label: 5'-biotin top strand; blunt
T6 sequence: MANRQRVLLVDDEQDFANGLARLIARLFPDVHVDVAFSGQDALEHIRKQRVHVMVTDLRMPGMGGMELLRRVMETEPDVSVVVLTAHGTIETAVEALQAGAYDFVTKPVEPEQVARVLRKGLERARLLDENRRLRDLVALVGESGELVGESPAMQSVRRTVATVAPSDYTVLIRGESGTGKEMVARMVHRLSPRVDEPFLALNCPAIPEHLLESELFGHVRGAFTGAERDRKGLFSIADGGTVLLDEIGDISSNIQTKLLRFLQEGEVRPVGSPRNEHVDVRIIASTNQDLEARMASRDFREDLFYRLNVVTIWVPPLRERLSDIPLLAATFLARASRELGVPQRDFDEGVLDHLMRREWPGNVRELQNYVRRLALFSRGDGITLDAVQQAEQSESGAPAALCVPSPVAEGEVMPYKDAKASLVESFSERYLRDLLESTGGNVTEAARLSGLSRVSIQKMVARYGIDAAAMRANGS

[8] = target: T7, DVU0539 response regulator (Desulfovibrio vulgaris Hildenborough, UniProt Q72EN8 1-467); assay: as above; conditions: protein: recombinant; tags: C-terminal V5-6xHis; chain copies: 2; label: 5'-biotin top strand; blunt
T7 sequence: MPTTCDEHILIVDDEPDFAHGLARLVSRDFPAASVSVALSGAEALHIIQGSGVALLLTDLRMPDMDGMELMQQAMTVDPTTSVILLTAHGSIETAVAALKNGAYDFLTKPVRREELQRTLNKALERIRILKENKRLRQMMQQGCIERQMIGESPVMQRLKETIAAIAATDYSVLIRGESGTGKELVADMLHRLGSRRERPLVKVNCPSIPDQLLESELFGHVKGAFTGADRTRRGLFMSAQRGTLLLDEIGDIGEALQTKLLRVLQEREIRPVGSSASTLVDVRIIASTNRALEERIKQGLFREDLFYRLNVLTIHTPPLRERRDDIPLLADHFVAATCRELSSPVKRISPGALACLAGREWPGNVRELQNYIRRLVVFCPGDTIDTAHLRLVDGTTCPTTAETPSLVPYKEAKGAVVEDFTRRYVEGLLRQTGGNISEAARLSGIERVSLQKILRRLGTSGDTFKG

[9] = target: T8, DVU1063 response regulator (Desulfovibrio vulgaris Hildenborough, UniProt Q72D66 1-479); assay: as above; conditions: protein: recombinant; tags: C-terminal V5-6xHis; chain copies: 2; label: 5'-biotin top strand; blunt
T8 sequence: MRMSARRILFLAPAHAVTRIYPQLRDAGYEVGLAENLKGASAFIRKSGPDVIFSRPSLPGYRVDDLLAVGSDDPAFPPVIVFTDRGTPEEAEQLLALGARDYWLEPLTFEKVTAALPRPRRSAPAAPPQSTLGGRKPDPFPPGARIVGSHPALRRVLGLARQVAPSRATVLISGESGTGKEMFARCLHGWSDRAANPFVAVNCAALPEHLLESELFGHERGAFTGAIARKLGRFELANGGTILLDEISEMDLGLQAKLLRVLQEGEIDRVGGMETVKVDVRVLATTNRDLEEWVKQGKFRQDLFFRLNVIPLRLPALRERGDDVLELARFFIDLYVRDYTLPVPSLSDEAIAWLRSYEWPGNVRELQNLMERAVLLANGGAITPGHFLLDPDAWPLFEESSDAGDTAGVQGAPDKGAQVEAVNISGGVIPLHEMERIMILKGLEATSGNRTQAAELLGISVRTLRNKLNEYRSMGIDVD

## GTCGGCGATTTCCATGAAGACTCCGGTGGTGTCTGGCGGGACATGAAAGAACTGTGCCGAAGGGTGACACCCCGGCAGATGCTGATGCCGGGTGCGCCACCACAGGCCAGCCCTTGCACCATGTCGCATCGCAAGGTCTCTGCGTTGCCTCGCAACGCGGTGCCGTGCACCATGAATGTGCAAACGATGGCACACAACGCCACGGCGTGCAATAAGATGCACACCACCTGCACATATCAAGCCTCATGTGAAGGAAAAGGACGGC (double strand) [DVU1418 upstream]
[1]
  binding: binds

B1: DVU0677 motif wt (dsDNA)
DNA 1: AATCGCACGCCGTGCGTATTCGCACGTGCTTTTCCG
DNA 2: CGGAAAAGCACGTGCGAATACGCACGGCGTGCGATT
[2]
  binding result: binds

B2: DVU2405 motif mut (dsDNA)
DNA 1: TCCAGCCATCTATGTTTTTTCGTGACTATGTTGAAGTTCGACCCAA
DNA 2: TTGGGTCGAACTTCAACATAGTCACGAAAAAACATAGATGGCTGGA
[3]
  binding result: no binding

B3: DVU1418 motif wt (dsDNA)
DNA 1: GCCGTGGCGTTGTGTGCCATCGTTTGCACATTCATGGTGC
DNA 2: GCACCATGAATGTGCAAACGATGGCACACAACGCCACGGC
[4]
  binding result: binds

B4: DVU1418 motif mut (dsDNA)
DNA 1: GCCGTGGCGTTGTATGCCATCGTTTGCTCGTTCATGGTGC
DNA 2: GCACCATGAACGAGCAAACGATGGCATACAACGCCACGGC
[4]
  binding result: no binding

B5: DVU0123 motif wt (dsDNA)
DNA 1: CGAACAGGAACATGTTCCCTCAAAGGAACATCGTTGGTGGAA
DNA 2: TTCCACCAACGATGTTCCTTTGAGGGAACATGTTCCTGTTCG
[5]
  binding result: binds

B6: DVU0123 motif mut (dsDNA)
DNA 1: CGAACAGGAACTTCTTGCCTCAAAGGTACGTCGTTGGTGGAA
DNA 2: TTCCACCAACGACGTACCTTTGAGGCAAGAAGTTCCTGTTCG
[6]
  binding result: no binding

B7: DVU0943 motif wt (dsDNA)
DNA 1: AGGTTTACGATGCAAAGTGATGTTTGCAGCTTGCCGAG
DNA 2: CTCGGCAAGCTGCAAACATCACTTTGCATCGTAAACCT
[7]
  binding result: binds
[8]
  binding result: binds

B8: DVU1032 motif wt (dsDNA)
DNA 1: GGCATGGTCGGGCGGCAGTTTTTTCCTGTATCCTG
DNA 2: CAGGATACAGGAAAAAACTGCCGCCCGACCATGCC
[9]
  binding result: binds
